Laboratory results published in US20080132681A1.
Several values for one entry are separate records, joined by “and”; a condition that tells them apart may be missing. Equal entries are not always repeated.

Molecular target: IFNα receptor 2 (IFNAR2) on THP-1 cells (human) (UniProt P48551)
Experiment: cell-based or functional assay

Sequence of UniProt P48551 (P48551 27-515): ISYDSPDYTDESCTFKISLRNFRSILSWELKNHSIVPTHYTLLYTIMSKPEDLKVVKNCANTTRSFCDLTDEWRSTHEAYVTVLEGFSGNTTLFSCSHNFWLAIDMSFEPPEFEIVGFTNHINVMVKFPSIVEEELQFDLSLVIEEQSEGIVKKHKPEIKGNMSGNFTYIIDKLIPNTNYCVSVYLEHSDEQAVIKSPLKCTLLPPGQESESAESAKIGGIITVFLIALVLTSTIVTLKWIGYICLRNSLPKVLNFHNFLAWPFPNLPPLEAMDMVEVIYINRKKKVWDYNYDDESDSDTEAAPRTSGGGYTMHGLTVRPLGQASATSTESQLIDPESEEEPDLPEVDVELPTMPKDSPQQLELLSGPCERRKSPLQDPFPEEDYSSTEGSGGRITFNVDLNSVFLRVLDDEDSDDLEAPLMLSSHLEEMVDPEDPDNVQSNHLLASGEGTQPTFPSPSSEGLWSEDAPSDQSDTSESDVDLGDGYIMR

pSTAT1 EC50 (THP-1 cells): 30 pM and 34.8 pM
Substance: 6HisC1G/C98 IFNα-2a + limitin loop (from UniProt P01563 25-188) (ligand)
